From IntAct's records for PubMed 31515488

B1: Chondroitin sulfate N-acetylgalactosaminyltransferase 2 (Homo sapiens), Q8N6G5 (parent)
chain: MPRRGLILHTRTHWLLLGLALLCSLVLFMYLLECAPQTDGNASLPGVVGENYGKEYYQALLQEQEEHYQTRATSLKRQIAQLKQELQEMSEKMRSLQERRNVGANGIGYQSNKEQAPSDLLEFLHSQIDKAEVSIGAKLPSEYGVIPFESFTLMKVFQLEMGLTRHPEEKPVRKDKRDELVEVIEAGLEVINNPDEDDEQEDEEGPLGEKLIFNENDFVEGYYRTERDKGTQYELFFKKADLTEYRHVTLFRPFGPLMKVKSEMIDITRSIINIIVPLAERTEAFVQFMQNFRDVCIHQDKKIHLTVVYFGKEGLSKVKSILESVTSESNFHNYTLVSLNEEFNRGRGLNVGARAWDKGEVLMFFCDVDIYFSAEFLNSCRLNAEPGKKVFYPVVFSLYNPAIVYANQEVPPPVEQQLVHKKDSGFWRDFGFGMTCQYRSDFLTIGGFDMEVKGWGGEDVHLYRKYLHGDLIVIRTPVPGLFHLWHEKRCADELTPEQYRMCIQSKAMNEASHSHLGMLVFREEIETHLHKQAYRTNSEAVG
partner: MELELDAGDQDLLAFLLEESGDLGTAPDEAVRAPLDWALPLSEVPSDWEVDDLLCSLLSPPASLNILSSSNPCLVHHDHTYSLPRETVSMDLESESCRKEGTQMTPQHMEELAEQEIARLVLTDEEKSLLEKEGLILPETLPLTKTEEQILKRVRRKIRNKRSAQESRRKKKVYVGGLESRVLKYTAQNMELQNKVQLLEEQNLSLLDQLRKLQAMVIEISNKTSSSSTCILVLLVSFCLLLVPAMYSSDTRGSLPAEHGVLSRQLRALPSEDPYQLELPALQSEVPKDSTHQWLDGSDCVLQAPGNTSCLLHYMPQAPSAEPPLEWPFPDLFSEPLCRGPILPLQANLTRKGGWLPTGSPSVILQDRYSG
B2: Nucleoporin p54 (Homo sapiens), Q7Z3B4 (parent)
chain: MAFNFGAPSGTSGTAAATAAPAGGFGGFGTTSTTAGSAFSFSAPTNTGTTGLFGGTQNKGFGFGTGFGTTTGTSTGLGTGLGTGLGFGGFNTQQQQQTTLGGLFSQPTQAPTQSNQLINTASALSAPTLLGDERDAILAKWNQLQAFWGTGKGYFNNNIPPVEFTQENPFCRFKAVGYSCMPSNKDEDGLVVLVFNKKETEIRSQQQQLVESLHKVLGGNQTLTVNVEGTKTLPDDQTEVVIYVVERSPNGTSRRVPATTLYAHFEQANIKTQLQQLGVTLSMTRTELSPAQIKQLLQNPPAGVDPIIWEQAKVDNPDSEKLIPVPMVGFKELLRRLKVQDQMTKQHQTRLDIISEDISELQKNQTTSVAKIAQYKRKLMDLSHRTLQVLIKQEIQRKSGYAIQADEEQLRVQLDTIQGELNAPTQFKGRLNELMSQIRMQNHFGAVRSEERYYIDADLLREIKQHLKQQQEGLSHLISIIKDDLEDIKLVEHGLNETIHIRGGVFS
partner: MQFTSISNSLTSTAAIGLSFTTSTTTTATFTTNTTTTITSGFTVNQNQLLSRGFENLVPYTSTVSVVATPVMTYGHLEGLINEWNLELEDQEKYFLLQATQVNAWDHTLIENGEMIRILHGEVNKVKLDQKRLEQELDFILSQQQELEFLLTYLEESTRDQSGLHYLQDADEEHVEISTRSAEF
B3: MYG1 exonuclease (Homo sapiens), Q9HB07 (parent)
chain: MGHRFLRGLLTLLLPPPPLYTRHRMLGPESVPPPKRSRSKLMAPPRIGTHNGTFHCDEALACALLRLLPEYRDAEIVRTRDPEKLASCDIVVDVGGEYDPRRHRYDHHQRSFTETMSSLSPGKPWQTKLSSAGLIYLHFGHKLLAQLLGTSEEDSMVGTLYDKMYENFVEEVDAVDNGISQWAEGEPRYALTTTLSARVARLNPTWNHPDQDTEAGFKRAMDLVQEEFLQRLDFYQHSWLPARALVEEALAQRFQVDPSGEIVELAKGACPWKEHLYHLESGLSPPVAIFFVIYTDQAGQWRIQCVPKEPHSFQSRLPLPEPWRGLRDEALDQVSGIPGCIFVHASGFIGGHRTREGALSMARATLAQRSYLPQIS
B4: Tetraspanin-2 (Homo sapiens), O60636 (parent)
chain: MGRFRGGLRCIKYLLLGFNLLFWLAGSAVIAFGLWFRFGGAIKELSSEDKSPEYFYVGLYVLVGAGALMMAVGFFGCCGAMRESQCVLGSFFTCLLVIFAAEVTTGVFAFIGKGVAIRHVQTMYEEAYNDYLKDRGKGNGTLITFHSTFQCCGKESSEQVQPTCPKELLGHKNCIDEIETIISVKLQLIGIVGIGIAGLTIFGMIFSMVLCCAIRNSRDVI
partner: B1 partner
B5: Isoform 1 of EF-hand domain-containing family member C2 (Homo sapiens), Q5JST6-1 (parent)
chain: MALPLLPGNSFNRNVGKEKFHKSQHWGFCNNVMMLVSDEKPGIGGEPLLGQKIKPKCSIYPKGDGSDVPSWVAFDKQVLSFDAYLEEEVLDKSQTNYRIRYYKIYFYPEDDTIQVNEPEVKNSGLLQGTSIRRHRITLPPPDEDQFYTVYHFNVGTEVVFYGRTFKIYDCDAFTRNFLRKIGVKVNPPVQCPEDPYMKIRREVVEHVEPLRPYESLDTLKQFLQYHGKILCFFCLWDDSVSMFGDRRELILHYFLCDDTIEIKELLPHSSGRDALKMFLRRSKLPKNCPPRVYQPGQITDRAVLNSYGDFIKNQADGYLFDRYKLGKVDQEFYKDSDLSLGVTINVWGRKVLLYDCDEFTKSYYKSKYGIENFTSVSCKPPSPPPKIERKFPPYNGFGSEEDSLRNCIDLKPTPHRRNFKKFMEKDSYGSKSNILRFFAKLVTDKCVDLDRMFVISYYLGDDTISVFEPIERNSGIAGGMFLKRSRVKKPGQEVFKSELSEYIKAEELYIGVTVNVNGYLFRLLNADEYTLNYMEQNTDKYPFSNLKLALQKLKQEEGKSRELKQVFKAADSKHTNMVDYNTFRDILMSLTVGNLAEQEFVTIARHYRVPEGTCSDMDFLIALAHEKFKKNMFENFDTFIYSCVYEDREKKNVLPTKDIKRLCKSSRLPLSDDLLESLLSRFEDSEKQIDYKSFFSALNWRKNPVPELQPASYLKERCEDVWLGMPSPIPAKYIDYWTFLKDAFGLEEE
partner: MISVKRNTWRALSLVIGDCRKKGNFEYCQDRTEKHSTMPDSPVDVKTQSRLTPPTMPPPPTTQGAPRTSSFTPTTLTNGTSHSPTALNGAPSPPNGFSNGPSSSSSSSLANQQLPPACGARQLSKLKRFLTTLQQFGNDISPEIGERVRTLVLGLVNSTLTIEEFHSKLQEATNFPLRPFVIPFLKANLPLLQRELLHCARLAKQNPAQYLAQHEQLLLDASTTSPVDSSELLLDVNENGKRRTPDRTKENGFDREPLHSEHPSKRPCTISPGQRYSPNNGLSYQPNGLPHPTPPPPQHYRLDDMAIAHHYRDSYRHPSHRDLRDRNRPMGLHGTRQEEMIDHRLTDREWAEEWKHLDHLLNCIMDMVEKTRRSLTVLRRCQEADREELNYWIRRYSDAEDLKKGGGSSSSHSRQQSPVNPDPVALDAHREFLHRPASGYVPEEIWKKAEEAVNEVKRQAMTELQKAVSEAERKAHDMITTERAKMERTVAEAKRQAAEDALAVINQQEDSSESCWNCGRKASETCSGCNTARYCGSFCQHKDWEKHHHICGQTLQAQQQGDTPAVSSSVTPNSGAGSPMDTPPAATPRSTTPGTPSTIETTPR
B6: Asparagine synthetase [glutamine-hydrolyzing] (Homo sapiens), P08243 (parent)
chain: MCGIWALFGSDDCLSVQCLSAMKIAHRGPDAFRFENVNGYTNCCFGFHRLAVVDPLFGMQPIRVKKYPYLWLCYNGEIYNHKKMQQHFEFEYQTKVDGEIILHLYDKGGIEQTICMLDGVFAFVLLDTANKKVFLGRDTYGVRPLFKAMTEDGFLAVCSEAKGLVTLKHSATPFLKVEPFLPGHYEVLDLKPNGKVASVEMVKYHHCRDVPLHALYDNVEKLFPGFEIETVKNNLRILFNNAVKKRLMTDRRIGCLLSGGLDSSLVAATLLKQLKEAQVQYPLQTFAIGMEDSPDLLAARKVADHIGSEHYEVLFNSEEGIQALDEVIFSLETYDITTVRASVGMYLISKYIRKNTDSVVIFSGEGSDELTQGYIYFHKAPSPEKAEEESERLLRELYLFDVLRADRTTAAHGLELRVPFLDHRFSSYYLSLPPEMRIPKNGIEKHLLRETFEDSNLIPKEILWRPKEAFSDGITSVKNSWFKILQEYVEHQVDDAMMANAAQKFPFNTPKTKEGYYYRQVFERHYPGRADWLSHYWMPKWINATDPSARTLTHYKSAVKA
partner: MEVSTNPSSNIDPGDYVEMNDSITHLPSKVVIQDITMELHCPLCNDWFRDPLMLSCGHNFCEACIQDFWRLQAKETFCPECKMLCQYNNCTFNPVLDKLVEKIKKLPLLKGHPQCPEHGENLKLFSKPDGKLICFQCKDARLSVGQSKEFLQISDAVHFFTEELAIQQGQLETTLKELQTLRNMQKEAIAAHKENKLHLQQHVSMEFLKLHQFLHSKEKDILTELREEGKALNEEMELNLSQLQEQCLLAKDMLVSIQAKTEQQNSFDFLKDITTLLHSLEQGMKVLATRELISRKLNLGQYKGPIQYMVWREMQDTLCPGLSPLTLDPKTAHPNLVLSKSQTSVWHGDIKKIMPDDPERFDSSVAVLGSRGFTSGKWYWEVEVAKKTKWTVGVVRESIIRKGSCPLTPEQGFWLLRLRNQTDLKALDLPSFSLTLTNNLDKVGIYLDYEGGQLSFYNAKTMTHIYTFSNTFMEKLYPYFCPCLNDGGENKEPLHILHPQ
B7: Rho guanine nucleotide exchange factor 39 (Homo sapiens), Q8N4T4 (parent)
chain: MELSCPGSRCPVQEQRARWERKRACTARELLETERRYQEQLGLVATYFLGILKAKGTLRPPERQALFGSWELIYGASQELLPYLEGGCWGQGLEGFCRHLELYNQFAANSERSQTTLQEQLKKNKGFRRFVRLQEGRPEFGGLQLQDLLPLPLQRLQQYENLVVALAENTGPNSPDHQQLTRAARLISETAQRVHTIGQKQKNDQHLRRVQALLSGRQAKGLTSGRWFLRQGWLLVVPPHGEPRPRMFFLFTDVLLMAKPRPPLHLLRSGTFACKALYPMAQCHLSRVFGHSGGPCGGLLSLSFPHEKLLLMSTDQEELSRWYHSLTWAISSQKN
partner: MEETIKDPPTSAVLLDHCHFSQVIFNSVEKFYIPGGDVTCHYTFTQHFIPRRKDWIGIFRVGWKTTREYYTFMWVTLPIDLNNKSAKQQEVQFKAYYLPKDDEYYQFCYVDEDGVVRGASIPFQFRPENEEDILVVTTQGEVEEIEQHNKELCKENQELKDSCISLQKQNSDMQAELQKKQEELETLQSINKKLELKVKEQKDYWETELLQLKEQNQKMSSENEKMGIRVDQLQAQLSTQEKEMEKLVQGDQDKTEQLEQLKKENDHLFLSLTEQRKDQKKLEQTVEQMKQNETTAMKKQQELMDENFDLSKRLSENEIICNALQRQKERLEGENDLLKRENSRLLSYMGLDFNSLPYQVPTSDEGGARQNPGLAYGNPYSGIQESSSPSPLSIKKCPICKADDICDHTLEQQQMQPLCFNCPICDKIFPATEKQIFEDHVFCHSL
B8: Farnesyl pyrophosphate synthase (Homo sapiens), P14324 (parent)
chain: MPLSRWLRSVGVFLLPAPYWAPRERWLGSLRRPSLVHGYPVLAWHSARCWCQAWTEEPRALCSSLRMNGDQNSDVYAQEKQDFVQHFSQIVRVLTEDEMGHPEIGDAIARLKEVLEYNAIGGKYNRGLTVVVAFRELVEPRKQDADSLQRAWTVGWCVELLQAFFLVADDIMDSSLTRRGQICWYQKPGVGLDAINDANLLEACIYRLLKLYCREQPYYLNLIELFLQSSYQTEIGQTLDLLTAPQGNVDLVRFTEKRYKSIVKYKTAFYSFYLPIAAAMYMAGIDGEKEHANAKKILLEMGEFFQIQDDYLDLFGDPSVTGKIGTDIQDNKCSWLVVQCLQRATPEQYQILKENYGQKEAEKVARVKALYEELDLPAVFLQYEEDSYSHIMALIEQYAAPLPPAVFLGLARKIYKRRK
partner: B1 partner

Variants of: B1
Details: with creb3_human CREB3, O43889

effect of a mutation on the interaction	Variant
with no effect	P479S

Variants of: B2
Details: with NUP62CL

effect of a mutation on the interaction	Variant
with no effect	R385K
with no effect	N250S

Variants of: B2
Details: with NUP62CL
Remark: another data set of the same source

effect of a mutation on the interaction	Variant
with no effect	T416A

Variants of: B3
Details: with atrap_human AGTRAP

effect of a mutation on the interaction	Variant
with no effect	R243Q

Variants of: B4
Details: with creb3_human CREB3, O43889

effect of a mutation on the interaction	Variant
with no effect	R118L

Variants of: B5
Details: with mtg8_human RUNX1T1, Q06455

effect of a mutation on the interaction	Variant
with no effect	V376I

Variants of: B5
Details: with mtg8_human RUNX1T1, Q06455
Remark: another data set of the same source

effect of a mutation on the interaction	Variant
disrupting interaction strength	N31S

Variants of: B6
Details: with tri69_human TRIM69, Q86WT6

effect of a mutation on the interaction	Variant
with no effect	A277T

Variants of: B7
Details: with caco2_human CALCOCO2, Q13137

effect of a mutation on the interaction	Variant
with no effect	D204N
with no effect	R230C

Variants of: B8
Details: with creb3_human CREB3, O43889

effect of a mutation on the interaction	Variant
with no effect	R150Q
